From patent publication US20250145684A1 (IMMATICS BIOTECHNOLOGIES, published 2025)

molecular target: T1, HLA-B*08:01 (human); test: UV peptide exchange ELISA
T1 construct: MHC monomer first loaded with a UV-sensitive peptide that is cleaved by UV light and exchanged for the test peptide
Source text: Candidate peptides for T cell based therapies according to the present invention were further tested for their MHC binding capacity (affinity). The individual peptide-MHC complexes were produced by UV-ligand exchange, where a UV-sensitive peptide is cleaved upon UV-irradiation and exchanged with the peptide of interest as analyzed. Only peptide candidates that can effectively bind and stabilize the peptide-receptive MHC molecules prevent dissociation of the MHC complexes. To determine the yield of the exchange reaction, an ELISA was performed based on the detection of the light chain (β2m) of stabilized MHC complexes. The assay was performed as generally described in Rodenko et al. (Rodenko et al., 2006).
96 well MAXISorp plates (NUNC) were coated over night with 2 ug/ml streptavidin in PBS at room temperature, washed 4× and blocked for 1 h at 37° C. in 2% BSA containing blocking buffer. Refolded HLA-A*02:01/MLA-001 monomers served as standards, covering the range of 15-500 ng/ml. Peptide-MHC monomers of the UV-exchange reaction were diluted 100-fold in blocking buffer. Samples were incubated for 1 h at 37° C., washed four times, incubated with 2 ug/ml HRP conjugated anti-β2m for 1 h at 37° C., washed again and detected with TMB solution that is stopped with […]. Absorption was measured at 450 nm. Candidate peptides that show a high exchange yield (preferably higher than 50%, most preferred higher than 75%) are generally preferred for a generation and production of antibodies or fragments thereof, and/or T cell receptors or fragments thereof, as they show sufficient avidity to the MHC molecules and prevent dissociation of the MHC complexes.

MRSSYIREL [MRSSYIREL (SEQ ID NO: 150)] and LLKKIEHA [LLKKIEHA (SEQ ID NO: 15)] fall in the same range of peptide exchange yield: 20 to 50% for the first, 20 to 50% for the second.

DRHLTNRVL [DRHLTNRVL (SEQ ID NO: 151)] and FNKLVTEL [FNKLVTEL (SEQ ID NO: 152)] fall in the same range of peptide exchange yield: 20 to 50% for the first, 20 to 50% for the second.

HAIPHYVTM [HAIPHYVTM (SEQ ID NO: 153)] and VLKTLQEL [VLKTLQEL (SEQ ID NO: 154)] fall in the same range of peptide exchange yield: 20 to 50% for the first, 20 to 50% for the second.

LPASFPAVL [LPASFPAVL (SEQ ID NO: 155)] and ILKEQSSSSF [ILKEQSSSSF (SEQ ID NO: 156)] fall in the same range of peptide exchange yield: 20 to 50% for the first, 20 to 50% for the second.

QPYRFPQA [QPYRFPQA (SEQ ID NO: 157)] and DVIIKGNGL [DVIIKGNGL (SEQ ID NO: 158)] fall in the same range of peptide exchange yield: 20 to 50% for the first, 20 to 50% for the second.

DLRNKIIA [DLRNKIIA (SEQ ID NO: 159)] and LPINNTHI [LPINNTHI (SEQ ID NO: 160)] fall in the same range of peptide exchange yield: 20 to 50% for the first, 20 to 50% for the second.

NRKPRTPF [NRKPRTPF (SEQ ID NO: 16)] and DIVPPFSAF [DIVPPFSAF (SEQ ID NO: 161)] fall in the same range of peptide exchange yield: 20 to 50% for the first, 20 to 50% for the second.

LFKQTKINL [LFKQTKINL (SEQ ID NO: 162)] and EVMAQFKEI [EVMAQFKEI (SEQ ID NO: 163)] fall in the same range of peptide exchange yield: 20 to 50% for the first, 20 to 50% for the second.

LPAPIPTLL [LPAPIPTLL (SEQ ID NO: 164)] and QNSLRHNL [QNSLRHNL (SEQ ID NO: 165)] fall in the same range of peptide exchange yield: 20 to 50% for the first, 20 to 50% for the second.

Compared with VLSGGRILAL [VLSGGRILAL (SEQ ID NO: 166)], DMKITVSL [DMKITVSL (SEQ ID NO: 167)] is higher in peptide exchange yield: 20 to 50% for the first, 50 to 75% for the second.

HVQDFTAF [HVQDFTAF (SEQ ID NO: 168)] and YELNNLHAL [YELNNLHAL (SEQ ID NO: 169)] fall in the same range of peptide exchange yield: 20 to 50% for the first, 20 to 50% for the second.

Compared with SPANVRGQSL [SPANVRGQSL (SEQ ID NO: 170)], LLILKTVL [LLILKTVL (SEQ ID NO: 17)] is higher in peptide exchange yield: 20 to 50% for the first, 50 to 75% for the second.

FPSQVPKQVL [FPSQVPKQVL (SEQ ID NO: 171)] and PYEKVSRL [PYEKVSRL (SEQ ID NO: 172)] fall in the same range of peptide exchange yield: 20 to 50% for the first, 20 to 50% for the second.

Compared with YPLLKDPSL [YPLLKDPSL (SEQ ID NO: 173)], HAMPSPRIL [HAMPSPRIL (SEQ ID NO: 174)] is lower in peptide exchange yield: 50 to 75% for the first, 20 to 50% for the second.

First: MRFQQFLFA [MRFQQFLFA (SEQ ID NO: 175)]
Second: YVIQRQSVL [YVIQRQSVL (SEQ ID NO: 176)]
The peptide exchange yield of the first is lower: 10 to 20% for the first, 20 to 50% for the second.
